According to article doi:10.1101/2024.04.29.591687 (bioRxiv, 2024):

Target: T1, tGFP-tagged mCLDN5 (mouse, UniProt O54942 1-218)
T1 sequence: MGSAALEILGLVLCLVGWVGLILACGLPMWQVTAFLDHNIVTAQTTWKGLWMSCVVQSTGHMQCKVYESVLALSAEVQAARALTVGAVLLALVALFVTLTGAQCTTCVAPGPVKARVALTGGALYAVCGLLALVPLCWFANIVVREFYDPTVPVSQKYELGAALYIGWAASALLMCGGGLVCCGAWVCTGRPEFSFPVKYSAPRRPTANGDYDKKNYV
Assay: MST

Binder: ESVLALNAEVQAAR [f1-C5C2]
- Kd: 68.3 µM
